Changes are numbered by the printed parent chain. Each block holds one binder with its values, some of them ahead of it.
Target: T1, canine CD20 on cells (HEK293, MDCK II, CLBL-1 or native B cells) (canine, UniProt Q3C2E2 1-297)
T1 construct: also called dCD20; cCD20
T1 chain: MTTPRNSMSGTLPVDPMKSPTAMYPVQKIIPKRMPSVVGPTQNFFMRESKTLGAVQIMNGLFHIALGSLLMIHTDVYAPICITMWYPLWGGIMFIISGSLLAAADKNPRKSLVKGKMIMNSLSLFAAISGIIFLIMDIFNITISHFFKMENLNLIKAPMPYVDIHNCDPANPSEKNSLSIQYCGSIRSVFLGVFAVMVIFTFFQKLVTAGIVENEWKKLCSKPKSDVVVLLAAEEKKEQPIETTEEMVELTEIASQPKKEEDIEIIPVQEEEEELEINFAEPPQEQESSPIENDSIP
Test: flow cytometry, canine CD20 HEK293 cells, 10 µg/ml, FITC anti-canine IgG
Method: A CD20 binding screen was performed on candidate proteins produced from the canine CD20 immunisation as described in Examples 2 and 3. CHO cells supernatants containing candidate antibodies were diluted to 10 μg/ml in FACS buffer (PBS containing 3% FBS) and screened for their ability to bind canine CD20 expressed on cell surface. In brief, 1-2×10⁵ canine CD20-expressing HEK cells were incubated with candidate mAbs for one hour at 4° C., at a fixed concentration of 10 μg/ml followed by incubation with 5 μg/ml of FITC-conjugated anti-canine IgG secondary antibody (Bethyl Laboratories) for 1 hour at 4° C. Cells incubated with anti-canine IgG FITC secondary antibody and without primary anti-canine CD20 antibody, or with isotype control primary antibody, were used as negative controls. The data were acquired on either a Beckman Coulter CytoFLEX or a BD Accuri C6 Plus flow cytometer and analysed using FlowJo software.

binding result: binds
B1: PMX231 (monospecific anti-canine CD20, canine IgG-B, lambda C5) (antibody, V domains shown)
VH: EVQLVESGGDLVKPGGSLRLSCVASGLTFSRYHMSWIRQAPGKGLQWVAYISSGGSSTNYAGSVKGRFTVSRDNAKNTLYLQMNSLRAEDTAVYYCTSLDYWGQGTLVTVSS
VL: SYVLTQLPSKNVTLKQPAHITCGGDNIGSKSVHWYQQKLGQAPVLIIYYDSRRPTGIPERFSGANSGNTATLTISGALAEDEADYYCQVWDSSDNVFGGGTHLTVLG

binding result: binds
B2: PMX270 (monospecific anti-canine CD20, canine IgG-B, lambda C5) (antibody, V domains shown)
VH: EVQLVESGGDLVKPGGSLRLSCVASGFTFSRYYMTWVRQAPGKGLQWVAYINSDRRSTTYADAVKGRFTISRDNAKNTLYLQMNSLRAEDTAVYYCTTLEYWGQGTLVTVSS
VL: B1 VL with S75N, D94A

binding result: binds
B3: PMX254 (monospecific anti-canine CD20, canine IgG-B, lambda C5) (antibody, V domains shown)
VH: EVQLVESGGDLVKPGGSLRLSCVASGFTFSRYHMSWIRQAPGKGLQWVAFIDSDGSGTRYADAVKGRFTFSRDNAKNTLYLQMSSLRAEDTAVYYCTSLEFWGQGTLVTVSS
VL: B1 VL with R52S, D94A

binding result: binds
B4: PMX269 (monospecific anti-canine CD20, canine IgG-B, lambda C5) (antibody, V domains shown)
VH: EVRLVESGGDLVKPGGSLRLSCVASGLTFNRYYMSWVRQGPGKGLQWVAYIDSGGSPTTYADTVKGRFTISRDNAKNTLYLQMNSLRVEDTAVYYCTTLEYWGQGTLVTVSS
VL: B1 VL with R52S, S92T, D94A

binding result: binds
B5: PMX232 (monospecific anti-canine CD20, canine IgG-B, lambda C5) (antibody, V domains shown)
VH: EMQLVESGGDLVKPGESLRLSCVASGISFNNYHMSWVRQAPGKGLQWVAYIDSVGTSTTYADAVKGRFTISRDNAKNTLYLQMNSLRAEDTAVYYCTTFDSWGQGTLVTVSS
VL: B1 VL with D94A

binding result: binds
B6: PMX235 (monospecific anti-canine CD20, canine IgG-B, lambda C5) (antibody, V domains shown)
VH: B2 VH with F27I, T35N, S53T, D54G, R55E, R56S, T59I, A61S
VL: B1 VL with V44A, S51N

binding result: binds
B7: PMX255 (monospecific anti-canine CD20, canine IgG-B, lambda C5) (antibody, V domains shown)
VH: B3 VH with T58A, S84N, F101Y
VL: B1 VL with I27V, D94A

binding result: binds
B8: PMX268 (monospecific anti-canine CD20, canine IgG-B, lambda C5) (antibody, V domains shown)
VH: EVQLVESGGDLMKPGGSLRLSCVASGITFSGYHMSWVRQAPGKGLQWVAFINSGRKNTAYADAVKGRFTISRDNAKNTLYLQMNSLRAEDTAIYYCTTLEFWGQGTLVTVSS
VL: B1 VL with S31N, A64V, S75N, V89M, D94A

binding result: binds
B9: PMX241 (monospecific anti-canine CD20, canine IgG-B, lambda C5) (antibody, V domains shown)
VH: B8 VH with M12V, K56R, N57S, A59S
VL: B1 VL with S75N, V89M, D94V

binding result: binds
B10: PMX267 (monospecific anti-canine CD20, canine IgG-B, lambda C5) (antibody, V domains shown)
VH: EMQLVESGGDLVKPGGSLRLSCVASGFTFSRYHMSWVRQAPGKGLQWVAYIDSDGINTNYADAVKGRFTISRDNAKNTLYLQMNSLRAEDTALYYCTTFDYWGQGTLVTVSS
VL: B1 VL with R52S, D94G

binding result: binds
B11: PMX248 (monospecific anti-canine CD20, canine IgG-B, lambda C5) (antibody, V domains shown)
VH: B10 VH with M2V, D52N, D54G, I56S, N57T, N59S, L93I, Y95F, T98S, F99L
VL: B1 VL with V44I, D94A

binding result: binds
B12: PMX256 (monospecific anti-canine CD20, canine IgG-B, lambda C5) (antibody, V domains shown)
VH: B10 VH with M2V, R31S, D52N, D54G, I56S, N57S, N59S, L81F, L93V, Y101S
VL: B1 VL with R52S, D94A

binding result: binds
B13: PMX239 (monospecific anti-canine CD20, canine IgG-B, lambda C5) (antibody, V domains shown)
VH: EVQLVESGGDLVKPGGSLRLSCVASGFTFSRYYMNWVRQAPGKGLQWVAFITSGGSSTSYGDAVKGRFTISRDNAKNTLYLQMNSLRAEDTAVYYCTSFDYWGQGTLVTVSS
VL: B1 VL with D50A, R52S, D94A

binding result: binds
B14: PMX258 (monospecific anti-canine CD20, canine IgG-B, lambda C5) (antibody, V domains shown)
VH: B13 VH with F27L, F50Y, T52N, S53T, G61A, T97A
VL: B1 VL with R52S, D94A

binding result: binds
B15: PMX249 (monospecific anti-canine CD20, canine IgG-B, lambda C5) (antibody, V domains shown)
VH: B13 VH with Y33H, N35S, F50Y, T52N, G61A, T97A
VL: B1 VL with S1P, D94A

binding result: binds
B16: PMX245 (monospecific anti-canine CD20, canine IgG-B, lambda C5) (antibody, V domains shown)
VH: B1 VH with I37V, S52N, N59D, G62D, S63G, V70I, D100E, Y101D
VL: B1 VL with R52S, D94V

binding result: binds
B17: PMX253 (monospecific anti-canine CD20, canine IgG-B, lambda C5) (antibody, V domains shown)
VH: B13 VH with L4M, F50Y, T52N, S56G, G61A, T97S
VL: B1 VL with R52S, D94A

binding result: binds
B18: PMX261 (monospecific anti-canine CD20, canine IgG-B, lambda C5) (antibody, V domains shown)
VH: B13 VH with F27I, F50Y, T52D, S57P, S59T, G61A, N77K, T78A
VL: B1 VL with R52S, Y86F, D94A

binding result: binds
B19: PMX264 (monospecific anti-canine CD20, canine IgG-B, lambda C5) (antibody, V domains shown)
VH: B13 VH with Y33H, N35S, T52N, S53T, G55R, S56M, S59N, G61A, F99L
VL: B1 VL with R52S, D94A

binding result: binds
B20: PMX236 (antibody, V domains shown)
VH: B13 VH with F27L, F50Y, T52D, S57P, S59N, G61A, T97S
VL: B1 VL with L4V, K10N, N11T, D94A
notes: also called PMX236 (monospecific anti-canine CD20, canine IgG-B, lambda C5)

binding result: binds
B21: PMX262 (monospecific anti-canine CD20, canine IgG-B, lambda C5) (antibody, V domains shown)
VH: B13 VH with F27I, F50Y, T52N, S57P, S59T, G61A
VL: B1 VL with V44I, S51T, R52S, D94A

binding result: binds
B22: PMX260 (monospecific anti-canine CD20, canine IgG-B, lambda C5) (antibody, V domains shown)
VH: B13 VH with S30R, Y33H, N35S, F50Y, T52D, S57G, G61A, T97S, F99L
VL: B1 VL with D94G

binding result: binds
B23: PMX242 (monospecific anti-canine CD20, canine IgG-B, lambda C5) (antibody, V domains shown)
VH: B10 VH with M2I, D52N, S53T, D54G, I56S, L93V, F99L, Y101S
VL: B1 VL with S9F, D94V

binding result: binds
B24: PMX234 (monospecific anti-canine CD20, canine IgG-B, lambda C5) (antibody, V domains shown)
VH: B13 VH with V2L, M34L, S59N, G61A, Y101S
VL: B1 VL with R52S, D94A

binding result: binds
B25: PMX240 (monospecific anti-canine CD20, canine IgG-B, lambda C5) (antibody, V domains shown)
VH: B13 VH with F27L, Y33H, N35S, T52N, G55R, S57D, S59T, G61A, S98T
VL: B1 VL with V44A, R52S, D94A

binding result: binds
B26: PMX237 (monospecific anti-canine CD20, canine IgG-B, lambda C5) (antibody, V domains shown)
VH: B13 VH with F27L, F50Y, T52N, S59D, G61A, A88V, T97A
VL: B1 VL with N11K, P17S, Y49H, R52S, D94A

binding result: binds
B27: PMX238 (monospecific anti-canine CD20, canine IgG-B, lambda C5) (antibody, V domains shown)
VH: B2 VH with Y33H, T35S, Y50F, S53T, D54G, R56S, T59N, K65A, T97S, E100D
VL: B1 VL with R52S, D94A

binding result: binds
B28: PMX257 (monospecific anti-canine CD20, canine IgG-B, lambda C5) (antibody, V domains shown)
VH: EVQLVESGGDLVKPGGSLRLSCVASGFTFSSYHMSWVRQAPGKGLQWVAYINSGGSSTSYADAVKGRFTISRDNAYSTLFLQMNNLRAEDTAVYYCTTLDSWGQGTLVTVSS
VL: B1 VL with R52S, D94A

binding result: binds
B29: PMX266 (monospecific anti-canine CD20, canine IgG-B, lambda C5) (antibody, V domains shown)
VH: B28 VH with V2L, S31R, Y76K, S77N, F80Y, N85S, L99F
VL: B1 VL with R52S, S92I, D94A

binding result: binds
B30: PMX263 (monospecific anti-canine CD20, canine IgG-B, lambda C5) (antibody, V domains shown)
VH: B13 VH with F50Y, T52N, G61A, E89D
VL: B1 VL with R52S, D94A

binding result: binds
B31: PMX243 (monospecific anti-canine CD20, canine IgG-B, lambda C5) (antibody, V domains shown)
VH: B13 VH with Y33H, N35S, F50Y, T52N, S57N, S59D, G61T, T97S, F99L
VL: B1 VL with S51R, S92R, D94G

binding result: binds
B32: PMX247 (monospecific anti-canine CD20, canine IgG-B, lambda C5) (antibody, V domains shown)
VH: B13 VH with Y33H, N35S, F50Y, T52N, S57P, T58S, G61A, Y101C
VL: B1 VL with D94A

binding result: binds
B33: PMX246 (monospecific anti-canine CD20, canine IgG-B, lambda C5) (antibody, V domains shown)
VH: B10 VH with D52N, D54G, I56S, N57P, L93V, F99Y, Y101Q
VL: B1 VL with N11S, R52S, S92T, D94A

binding result: binds
B34: PMX259 (monospecific anti-canine CD20, canine IgG-B, lambda C5) (antibody, V domains shown)
VH: B13 VH with Y33H, N35S, F50Y, T52N, G61A, T97A
VL: B1 VL with R52N, D94G

binding result: binds
B35: PMX252 (monospecific anti-canine CD20, canine IgG-B, lambda C5) (antibody, V domains shown)
VH: B13 VH with Y33H, N35S, F50Y, T52N, G61A, T97A, F99L
VL: B1 VL with R52S, S92I, D94A
